Measurements reported in patent publication US20110280859A1 (UNIVERSITY OF ROCHESTER, published 2011).

Key:
[1] = target: β3 integrins on human neutrophils (human, UniProt P05106 27-788); assay: cell-based or functional assay
[2] = target: β1 integrins on human neutrophils (human, UniProt P05556 21-798); assay: cell-based or functional assay
Sequence of β1 integrins on human neutrophils (P05556 21-798): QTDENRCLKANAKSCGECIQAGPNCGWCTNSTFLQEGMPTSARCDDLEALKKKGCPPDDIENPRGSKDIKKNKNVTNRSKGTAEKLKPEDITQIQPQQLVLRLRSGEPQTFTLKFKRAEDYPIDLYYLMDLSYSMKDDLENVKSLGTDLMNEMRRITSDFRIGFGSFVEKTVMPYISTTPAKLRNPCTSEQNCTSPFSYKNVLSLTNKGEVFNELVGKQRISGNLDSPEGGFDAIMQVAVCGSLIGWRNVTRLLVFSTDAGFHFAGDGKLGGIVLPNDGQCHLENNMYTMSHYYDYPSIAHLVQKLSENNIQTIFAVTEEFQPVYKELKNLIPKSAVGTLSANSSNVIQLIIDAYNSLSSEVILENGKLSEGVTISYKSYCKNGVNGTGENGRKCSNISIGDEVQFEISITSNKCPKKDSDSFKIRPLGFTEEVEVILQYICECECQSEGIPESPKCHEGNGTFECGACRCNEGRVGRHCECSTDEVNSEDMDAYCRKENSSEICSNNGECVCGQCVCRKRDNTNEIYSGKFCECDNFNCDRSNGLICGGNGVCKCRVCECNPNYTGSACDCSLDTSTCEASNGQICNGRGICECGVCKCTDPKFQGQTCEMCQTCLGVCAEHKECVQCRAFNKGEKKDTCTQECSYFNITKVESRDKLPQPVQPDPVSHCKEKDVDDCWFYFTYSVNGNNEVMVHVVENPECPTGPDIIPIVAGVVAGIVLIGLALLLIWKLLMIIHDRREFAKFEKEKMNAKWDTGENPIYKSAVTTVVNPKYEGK

Sequence of β3 integrins on human neutrophils (P05106 27-788): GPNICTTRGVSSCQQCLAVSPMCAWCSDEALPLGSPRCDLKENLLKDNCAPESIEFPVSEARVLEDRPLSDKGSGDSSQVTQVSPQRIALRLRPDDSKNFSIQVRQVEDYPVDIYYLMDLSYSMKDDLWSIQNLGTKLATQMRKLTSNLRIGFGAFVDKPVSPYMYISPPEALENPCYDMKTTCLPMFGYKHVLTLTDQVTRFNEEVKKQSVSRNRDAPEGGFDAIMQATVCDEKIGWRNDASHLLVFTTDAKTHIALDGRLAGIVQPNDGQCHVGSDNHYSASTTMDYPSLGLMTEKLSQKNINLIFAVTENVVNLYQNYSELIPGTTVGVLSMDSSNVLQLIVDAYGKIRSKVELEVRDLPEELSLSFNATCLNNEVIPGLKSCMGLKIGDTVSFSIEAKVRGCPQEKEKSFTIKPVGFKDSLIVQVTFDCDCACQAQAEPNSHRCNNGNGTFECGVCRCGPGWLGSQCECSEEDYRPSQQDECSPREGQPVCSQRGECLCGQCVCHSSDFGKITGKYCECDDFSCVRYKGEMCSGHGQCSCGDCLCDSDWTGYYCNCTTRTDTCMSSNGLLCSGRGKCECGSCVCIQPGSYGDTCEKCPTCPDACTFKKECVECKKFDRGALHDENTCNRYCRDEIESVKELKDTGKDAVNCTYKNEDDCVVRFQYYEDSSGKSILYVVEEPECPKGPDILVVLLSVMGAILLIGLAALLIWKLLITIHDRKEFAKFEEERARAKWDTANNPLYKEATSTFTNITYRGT

average lateral migration speed (S) of neutrophils on FN toward fMLP, micropipette assay [1]: 2.5 fold
average lateral migration speed (S) of neutrophils on FN toward fMLP, micropipette assay [2]: 2.5 fold
B1: Recombinant human activated protein C (enzyme)
chain 1: ANSFLEELRHSSLERECIEEICDFEEAKEIFQNVDDTLAFWSKHVDGDQCLVLPLEHPCASLCCGHGTCIDGIGSFSCDCRSGWEGRFCQREVSFLNCSLDNGGCTHYCLEEVGWRRCSCAPGYKLGDDLLQCHPAVKFPCGRPWKRMEKKRSHL
chain 2: LIDGKMTRRGDSPWQVVLLDSKKKLACGAVLIHPSWVLTAAHCMDESKKLLVRLGEYDLRRWEKWELDLDIKEVFVHPNYSKSTTDNDIALLHLAQPATLSQTIVPICLPDSGLAERELNQAGQETLVTGWGYHSSREKEAKRNRTFVLNFIKIPVVPHNECSEVMSNMVSENMLCAGILGDRQDACEGDSGGPMVASFHGTWFLVGLVSWGEGCGLLHNYGVYTKVSRYLDWIHGHIRDKEAPQKSWAP
